Target: Scl1.41 on the surface of M41-type GAS cells (MGAS6183 wild type and Δscl1::scl1.41) (Streptococcus pyogenes (group A Streptococcus), M41-type strain MGAS6183)

Substance | reduction in GAS (WT M41) adherence to CAF-derived matrices after 30 min pre-incubation of the cells with rTnFn1-5, against untreated WT [%] | reduction in GAS (WT M41) adherence to CAF-derived matrices after 30 min pre-incubation of the cells with rTnFn6-8, against untreated WT [%]
recombinant tenascin-C fibronectin type III repeats 1-5 (rTnFn1-5) (domain or fragment) | 70 | 
recombinant tenascin-C fibronectin type III repeats 6-8 (rTnFn6-8) (domain or fragment) |  | 40

Source: paper PMC6736723
